Laboratory results as given in the DeepSol protein solubility set.

Assay: soluble on expression in E. coli; label from the status in PepcDB or PDB records

Sequence | soluble on expression in E. coli
SLNVVLIVEDEILEQEFLKTMVLGELSPEDKVLTTESGIQAVQLAKQHRPNIIIMDLMIAEVDGLTAIQDIRKFLPNACITILSAYSDFSYAQKAINLKVFEYLLKPVKPSAFKEIFKKMLEIAHEESMISEPIEKTFLPLQEEHQSFIQESVTYIQEHFKEKLTLEMTASRVFMNPKYFSRVFKKEMGISFTEFIIQLRIQYACRLLETTNYPAYRISSECGFSDPSYFNRVFCAQLNMTPQTYRKNSQAQQHEG | soluble
MIEISTSATSTTVTIEGDLDLSTRPQFHAATAKLGAVRRPLLVIDASRITFLDSTGAAFLISLADATRKRGGAAVLRGADERVLFVLETCGALDFFRLDPEPGLQEGDGGTRLRG | not soluble
MGSDKIHHHHHHMSNTKKGLATAGYNDDLAKLEEIFLPNFFYKKMQYYFSSSGLISNDVLFVHYTSTESALDIIREKRVLMRNALHMPDRQEVQDGFNIMDGLLSNENNHWVEFRNRIEVVLPGVVDRVMKIYSDHSHGRNDGTYFLSVLEHDESEKELGRLSMWRAFCGQSQPVAMFLRLPALSAVSQVLRIFFNPVLYKGKGQQHLELAEVIKNVENHKSFLERLDPDLVTSAIVSMILINVLCVKHKVFKEEREWRCVYLPKCFTSETSARLIEPGVEEQVGASRNVYKMPLNAAIDPVLSDIDLSKIFDSLIIGPSKSPYATYEVFCDELKKIGVSDVESKVRVTEIPVR | not soluble
MSDSTPKTPRGFVVHTAPVGLADDGRDDFTVLASTAPATVSAVFTRSRFAGPSVVLCREAVADGQARGVVVLARNANVATGLEGEENAREVREAVARALGLPEGEMLIASTGVIGRQYPMESIREHLKTLEWPAGEGGFDRAARAIMTTDTRPKEVRVSVGGATLVGIAKGVGMLEPDMATLLTFFATDARLDPAEQDRLFRRVMDRTFNAVSIDTDTSTSDTAVLFANGLAGEVDAGEFEEALHTAALALVKDIASDGEGAAKLIEVQVTGARDDAQAKRVGKTVVNSPLVKTAVHGCDPNWGRVAMAIGKCSDDTDIDQERVTIRFGEVEVYPPKARGDQADDALRAAVAEHLRGDEVVIGIDLAIADGAFTVYGCDLTEGYVRLNSEYTT | soluble
MAHHHHHHMTTAGQSDAFTRVSLHSVTALGKCPAPFSDPIAVKVVLEVFGCPPKHSIDVKFTWKPIWDFPVDQVLDEFEVGPLATVGKHELVLHSDPPDVAKIPDPTGPTALTIAFTYRGKQFLHIGYNAVVLCEGEMPDVFEDAAMLSRQLTQCFKKETTIAWDEDHEDVEEKTVINGKDNDISDVKEKDHNGHAAYDDEAKVPEGVSPTKKKARCEGSLSQ | soluble
MQYRRQPCSGVVKFNDAITLIDAGLHDLADRWSPGSFQQFLLTHYHMDHVQGLFPLRWGVGDPIPVYGPPDEQGCDDLFKHPGLLDFSHTVEPFVVFDLQGLQVTPLPLNHSKLTFGYLLETAHSRVAWLSDTAGLPEKTLKFLRNNQPQVMVMDCSHPPRADAPRNHCDLNTVLALNQVIRSPRVILTHISHQFDAWLMENALPSGFEVGFDGMEIGVALEHHHHHH | not soluble
MAPPKDPPVLRNLQATADLLDALQNDPSLLNDEEFIKRLSILRQKHEETTNFLAKKLGAPPLPTMMTSSEITQHRSSYKVTKSSSCHFQDEASPSDYQMPRHLDLKPRSSEVRVPVRAAPEPPREQSWSQTEYATLAHNQSHEALYEDPRHQVHATSSHQNPRHQSSRHHNIESTAPSQVSVTSSVQSVAALSGQNPRQQVHATPSHQIPRHQSSRTHQNSRQQVPSATSSTLQNPRHRTSSASRHHSTRNATSATVRQILANASTRHLSSAPHIATSVAMPSGLLLSSSNTKHVASSKSENPQFATSSHVVEESFLEDGMSTTREVPTIRDEVVAGDLKLSKNRSKSMHQLSKYTPQVTVPKPFQLSLRKSTGNTYAKKFMSGLITEKQKLEEDAKKALENTKFRAKPVPKSTYQPTNTFATEQKYVEAMRKKVAAKARRKFEVQNEMVRSKSEGNLASIKPLGYVPPSTYISPIPVKPNARSRSATMRATILIQEATTPKGIKSHRAQSNLTHHLRHGRCTMDASAVSLHRRTSPPDFEKIHAKITDNFRNTNSKPSTVPIPFKFASRSKSATSRHGNCQEQAPKPFKKSTENLPKTSKNRVPSTHATQLREELNRAKIELKKSEKSGKNGNFWAEDNKQRISSFLGARSKTEEDIAMRTKQKLQQQQETTQEYMRQLAEMKQRVLNGPLIMEKQTALAQEHRLKRKFEERMKSAKGRGIERVQSQEKQQSIGRRSSEVSGSGTFVVDKGYEESFESEDKSEKSGSSTPSESGSGSESENESRSSRSSKPKSSKSTSSKSSSSRSTSSSSEA | not soluble
MSDAFLSSIKNRRTIYALDKQLPVSQEKIVELVKEAVSHSPSAFNSQSSRVVVLFGAEHEQFWNIAKDELKKIVPADAFAATETKLNSFAAGAGTVLFFEDQTVVRQLQEQFALYADNFPVWSEQASGMAQFAVWTALAEHKVGASLQHYNPLVDAQTHKTWNLPESWKLRAQMPFGAIAAPAGEKAFIAESERFKVFGN | not soluble
MSCTRRQFITRVGALAAVSGMAGRVVANTLNINGVRYGMVHDESLCIGCTACMDACREVNTVPEGVSRLTIIRSEPQGTFPDVKYRFFRHSCQHCDHAPCVDVCPTGASFRDAASGIVDVNPDLCVGCQYCIAACPYRVRFIHPVSKTADKCDFCRKTNLKAGKQPACVESCPTKALTFGNLDDPNSDISRLLRQKTTYRYKLALGTKPKVYRVPFNYGEVSQ | not soluble
MGSSHHHHHHSSGLVPRGSHWGSPNSSSVDKLMDTIVAVATPPGKGAIAILRLSGPDSWKIVQKHLRTRSKIVPRKAIHGWIHENGEDVDEVVVVFYKSPKSYTGEDMVEVMCHGGPLVVKKLLDLFLKSGARMAEPGEFTKRAFLNGKMDLTSAEAVRDLIEAKSETSLKLSLRNLKGGLRDFVDSLRRELIEVLAEIRVELDYPDEIETNTGEVVTRLERIKEKLTEELKKADAGILLNRGLRMVIVGKPNVGKSTLLNRLLNEDRAIVTDIPGTTRDVISEEIVIRGILFRIVDTAGVRSETNDLVERLGIERTLQEIEKADIVLFVLDASSPLDEEDRKILERIKNKRYLVVINKVDVVEKINEEEIKNKLGTDRHMVKISALKGEGLEKLEESIYRETQEIFERGSDSLITNLRQKQLLENVKGHLEDAIKSLKEGMPVDMASIDLERALNLLDEVTGRSFREDLLDTIFSNFCVGK | soluble
MQCNDVQATEPDIKVSLTRVGVTNLKKLVKLKRKNKRDIVLLPTFEVFVDLPSSQKGIHMSRSPEVIEEVVENILLEKEIYGVEDLSVEIVMKLFEKHEYATRAEVMLYSDYMMEEKSPVTKKDSQEIGKIIARAYGVKDSNGKIDVKKMVGAEVVGITACPCAQNMLKENAVVSLTEKGFSSEDIEKILDSVTIATHNQRGIGTVMIEVPNGYTVGISKIIKIIKDSMSGEVYELLKRSDEAFVVEAAHKNPKFVEDCAREMIKRVVDVFDYLPEDTQVLVRQVNKESIHRHDAFAERNSTIRELRDELKTLTN | not soluble
YPNVEVFGEVPIQVVNAEPLGMHSNVMEAMFTAITRAKKNVYIETPYFIPTECLLQAIQTASMSGIDVRLVMPKRSDNDFVQYASNSYVEKLLRNKVRVYQYVNGFTHSKLMIVDDELVVVGSANMDIRSLELLFETNLFIYDKKVAQTVRDIYHTDMNNSKELNLRDWLQR | not soluble
MKSEETQPFGITIEGVELSDGDVQFADKSLPLPFSTSIHTLSGEVSTLSSDSSEPARVKFEGEVAEYGLAQVNGTVHAWHPTRQTTINVRFRNLQIPEYSPYTVNFAGRKIADGTMDLDLDYTVNEEKLDGQNNLVLHDLKLGEKMESSDAMDLPLDLAIALLQDSDGLEHHHHHH | soluble
MGSDKIHHHHHHMVLALNYNMHGVNIRSENAAKPHTMPSRYLCEYIRSIEKNGHALDFGCGKLRYSDELISKFDEVTFLDSKRQLEREQIIRGIKTKIIDYVPRYYKNANTVAFEDVDKIIGGYDFILCSNVLSAVPCRDTIDKIVLSIKRLLKSGGETLIVNQYKSSYFKKYETGRKHLYGYIYKNSKSVSYYGLLDELAVQEICSSHGLEILKSWSKAGSSYVTVGSCNAI | not soluble
MIELEGVPELVDPVMVAAFEGWNDAGDAASTAVAHLDREWKGEVFAALDAEDYYDFQVNRPTVFMEDGVRKITWPTTRLSVVRVGGDKPRDLVLVRGIEPSMRWRSFCNELLGFAHELGVELVVVLGALLGDTPHTRPVPISGTTSDADLARRMDLEETKYEGPTGIVGILQEACTHAGVPAVSLWAAVPHYVSQPPNPKATLALLNRLEDLIGVRVPLGELPEDARAWQVGVDQLAAEDTEVAEYVQSLEEARDTA | soluble
MLLLRITMLEGRSTEQKAELARALSAAAAAAFDVPLAEVRLIIQEVPPTHWTVGGISMAELRQQASTSTQGQ | soluble
MKSKFEASIDNLKEIEMNAYAYELIREIVLPDMLGQDYSSMMYWAGKHLARKFPLESWEEFPAFFEEAGWGTLTNVSAKKQELEFELEGPIISNRLKHQKEPCFQLEAGFIAEQIQLMNDQIAESYEQVKKRADKVVLTVKWDMKDPVMAGDPLEHHHHHH | soluble
MLSKSKRSCRRRETLRIGEKMSAPITNLQAAQRDAIMNRPAVNGFPHLAETLRRAGVRTNTWWLPAMQSLYETDYGPVLDQGVPLIDGVAEVPAFDRTALVTALRADQAGQTSFREFAAAAWRAGVLRYVVDLENRTCTYFGLHDQTYMEHYAAVEPSGGAPTS | not soluble
MSEVDKAHLAAINKDVQANDTLFGKIIRKEIPAKIIFEDDEALAFHDVSPQAPIHFLVIPKRRIDMLENAVDSDAALIGKLMVTASKVAKQLGMANGYRVVVNNGKDGAQSVFHLHLHVLGGRQLQWPPG | not soluble
MGSDKIHHHHHHMTDVHASTQALKPARLLADSPSRFPGESAEYRRARNDLLVEEIELRRHIERVAAQRRALPAGGVVPEDYRFMGEAGPVALSEMFGAHDTLVTYNWMFGPQRVRPCPMCTSLLSAYDGEMPDILQRVAFAVIARAPIERLVAFGKERGWRHLRLYSSGGNSFNRDYAAEDPAGDDHPAFNVFTRSGGTVRHFWAEEMGPSTADPGQDPRGAPDVMPIWTVLDMTPGGRGTDWYPKLEYDTAPG | not soluble
MMKQALRVAFGFLILWASVLHAEVRIVIDSGVDSGRPIGVVPFQWAGPGAAPEDIGGIVAADLRNSGKFNPLDRARLPQQPGSAQEVQPAAWSALGIDAVVVGQVTPNPDGSYNVAYQLVDTGGAPGTVLAQNSYKVNKQWLRYAGHTASDEVFEKLTGIKGAFRTRIAYVVQTNGGQFPYELRVSDYDGYNQFVVHRSPQPLMSPAWSPDGSKLAYVTFESGRSALVIQTLANGAVRQVASFPRHNGAPAFSPDGSKLAFALSKTGSLNLYVMDLASGQIRQVTDGRSNNTEPTWFPDSQNLAFTSDQAGRPQVYKVNINGGAPQRITWEGSQNQDADVSSDGKFMVMVSSNGGQQHIAKQDLATGGVQVLSSTFLDETPSLAPNGTMVIYSSSQGMGSVLNLVSTDGRFKARLPATDGQVKFPAWSPYLLEHHHHHH | soluble
MGSDKIHHHHHHMTEGLTIGIDVGGTNLRFGVFRGNELLDSTRSEVDLREKCRQAPDPEGAAALVTTLLTEGIADLRRHHPNIARVGIAFPGFIDDDGVLLQSPNIPQLIQFDLQTAVGAACQLPVLVENDANAAGYGEFWEERQEHPELQNLLYVGLGTGVGGGWIHQGRPWRGDHGSAMEIGHIIVVPGGRRCGCGNQGCLEQYASARGVQSTYVELTGTAPDAMVIAQMAGDAHSEAASAFRMAGGYLGQVLAHVVKVTDVAVVRIGGGMSAAWDRFAPAMLQRLDADMIPALRGNVEVKRGNDDDLAGMRGAALLADQEFLHS | not soluble
